Data from the supplement of paper PMC11246515.
± gives the standard deviation of the averaged measurements.

Assay: total protein half-life in vivo (active degradation + dilution); higher = more stable protein
[1] = E. coli NCM3722 delta-clpP delta-lon delta-hslV, growth: N-lim chemostat, doubling time 6 h
[2] = E. coli NCM3722 delta-clpP, growth: N-lim chemostat, doubling time 6 h
[3] = E. coli NCM3722 delta-hslV, growth: N-lim chemostat, doubling time 6 h
[4] = E. coli NCM3722 delta-lon, growth: N-lim chemostat, doubling time 6 h
[5] = E. coli NCM3722 delta-smpB, growth: N-lim chemostat, doubling time 6 h
[6] = wild type E. coli NCM3722, growth: C-lim chemostat, doubling time 3 h
[7] = wild type E. coli NCM3722, growth: C-lim chemostat, doubling time 6 h
[8] = wild type E. coli NCM3722, growth: C-lim chemostat, doubling time 12 h
[9] = wild type E. coli NCM3722, growth: N-lim chemostat, doubling time 6 h
[10] = wild type E. coli NCM3722, growth: N-lim chemostat, doubling time 12 h
[11] = wild type E. coli NCM3722, growth: P-lim chemostat, doubling time 6 h
[12] = wild type E. coli NCM3722, growth: P-lim chemostat, doubling time 12 h

Sequence	total protein half-life in vivo [1]	total protein half-life in vivo [2]	total protein half-life in vivo [3]	total protein half-life in vivo [4]	total protein half-life in vivo [5]	total protein half-life in vivo [6]	total protein half-life in vivo [7]	total protein half-life in vivo [8]	total protein half-life in vivo [9]	total protein half-life in vivo [10]	total protein half-life in vivo [11]	total protein half-life in vivo [12]
MMRIALFLLTNLAVMVVFGLVLSLTGIQSSSVQGLMIMALLFGFGGSFVSLLMSKWMALRSVGGEVIEQPRNERERWLVNTVATQARQAGIAMPQVAIYHAPDINAFATGARRDASLVAVSTGLLQNMSPDEAEAVIAHEISHIANGDMVTMTLIQGVVNTFVIFISRILAQLAAGFMGGNRDEGEESNGNPLIYFAVATVLELVFGILASIITMWFSRHREFHADAGSAKLVGREKMIAALQRLKTSYEPQEATSMMALCINGKSKSLSELFMTHPPLDKRIEALRTGEYLK	4.24 ± 0.051 h	5.6 ± 0.59 h	5.25 ± 0.11 h	4.77 ± 0.29 h	4.77 ± 0.48 h	2.45 ± 0.076 h	4.83 ± 0.3 h	8.92 ± 1.5 h	5.48 ± 0.92 h	10.5 ± 1.2 h	4.81 ± 0.22 h	7.97 ± 0.28 h
MFLVDSHCHLDGLDYESLHKDVDDVLAKAAARDVKFCLAVATTLPGYLHMRDLVGERDNVVFSCGVHPLNQNDPYDVEDLRRLAAEEGVVALGETGLDYYYTPETKVRQQESFIHHIQIGRELNKPVIVHTRDARADTLAILREEKVTDCGGVLHCFTEDRETAGKLLDLGFYISFSGIVTFRNAEQLRDAARYVPLDRLLVETDSPYLAPVPHRGKENQPAMVRDVAEYMAVLKGVAVEELAQVTTDNFARLFHIDASRLQSIR [P0AFQ7]	4.81 ± 0.12 h	3.33 ± 0.04 h	3.06 ± 0.22 h	3.76 ± 0.27 h	2.97 ± 0.21 h	2.46 ± 0.053 h	4.73 ± 0.61 h	9.89 ± 2.7 h	3.63 ± 0.31 h	5.34 ± 1.1 h	4.39 ± 0.14 h	7.55 ± 0.79 h
MGQQKQRNRRWVLASRPHGAPVPENFRLEEDDVATPGEGQVLLRTVYLSLDPYMRGRMSDEPSYSPPVDIGGVMVGGTVSRVVESNHPDYQSGDWVLGYSGWQDYDISSGDDLVKLGDHPQNPSWSLGVLGMPGFTAYMGLLDIGQPKEGETLVVAAATGPVGATVGQIGKLKGCRVVGVAGGAEKCRHATEVLGFDVCLDHHADDFAEQLAKACPKGIDIYYENVGGKVFDAVLPLLNTSARIPVCGLVSSYNATELPPGPDRLPLLMATVLKKRIRLQGFIIAQDYGHRIHEFQREMGQWVKEDKIHYREEITDGLENAPQTFIGLLKGKNFGKVVIRVAGDD	4.9643 ± 0.002 h	5.13 ± 1.2 h	5.03 ± 0.36 h	4.74 ± 0.34 h	4.16 ± 0.6 h	3.3 ± 0.29 h	5.53 ± 0.19 h	10.3 ± 1 h	4.48 ± 0.35 h	7.42 ± 0.32 h	5.59 ± 0.22 h	10.9 ± 0.62 h
MQEIYRFIDDAIEADRQRYTDIADQIWDHPETRFEEFWSAEHLASALESAGFTVTRNVGNIPNAFIASFGQGKPVIALLGEYDALAGLSQQAGCAQPTSVTPGENGHGCGHNLLGTAAFAAAIAVKKWLEQYGQGGTVRFYGCPGEEGGSGKTFMVREGVFDDVDAALTWHPEAFAGMFNTRTLANIQASWRFKGIAAHAANSPHLGRSALDAVTLMTTGTNFLNEHIIEKARVHYAITNSGGISPNVVQAQAEVLYLIRAPEMTDVQHIYDRVAKIAEGAALMTETTVECRFDKACSSYLPNRTLENAMYQALSHFGTPEWNSEELAFAKQIQATLTSNDRQNSLNNIAATGGENGKVFALRHRETVLANEVAPYAATDNVLAASTDVGDVSWKLPVAQCFSPCFAVGTPLHTWQLVSQGRTSIAHKGMLLAAKTMAATTVNLFLDSGLLQECQQEHQQVTDTQPYHCPIPKNVTPSPLK	5.29 ± 0.17 h	–	–	–	–	–	–	–	–	–	–	–
MKTIFRYILFLALYSCCNTVSAYTSFIVGNNAGVDNYRGPSTAAQMTFNYTSTASNLVFYKPTQLGPTGVKMYWSYLDTGTGGGILYCNTSGRANPGPITIENAMVYSGKDYGGHKLFNTSVPGLYYTMLISRVWSAYDTITDIQSPGIYIGDPSNQEFFFSVTDSDLQTKGCNKADDYDKFWAIGGIVHNITVEFYTDTNFDPTLNQQVQLSSSSNYLYSFKAYSPGTKVVDHSNHIYVNFTLNNVKLTLPTCFTSILTGPSVNGSTVRMGEYSSGTIKNGASPVPFDISLQNCIRVRNIETKLVTGKVGTQNTQLLGNTLTGSTAAKGVGVLIEGLATSKNPLMTLKPNDTNSVYIDYETEDDTSDGVYPNQGNGTSQPLHFQATLKQDGNIAIEPGEFKATSTFQVTYP	–	–	–	–	4.93 ± 0.34 h	–	–	4.96 h	–	–	–	–
MTTQVPPSALLPLNPEQLARLQAATTDLTPTQLAWVSGYFWGVLNQQPAALAATPAPAAEMPGITIISASQTGNARRVAEALRDDLLAAKLNVKLVNAGDYKFKQIASEKLLIVVTSTQGEGEPPEEAVALHKFLFSKKAPKLENTAFAVFSLGDSSYEFFCQSGKDFDSKLAELGGERLLDRVDADVEYQAAASEWRARVVDALKSRAPVAAPSQSVATGAVNEIHTSPYSKDAPLVASLSVNQKITGRNSEKDVRHIEIDLGDSGMRYQPGDALGVWYQNDPALVKELVELLWLKGDEPVTVEGKTLPLNEALQWHFELTVNTANIVENYATLTRSETLLPLVGDKAKLQHYAATTPIVDMVRFSPAQLDAEALINLLRPLTPRLYSIASSQAEVENEVHVTVGVVRYDVEGRARAGGASSFLADRVEEEGEVRVFIEHNDNFRLPANPETPVIMIGPGTGIAPFRAFMQQRAADEAPGKNWLFFGNPHFTEDFLYQVEWQRYVKDGVLTRIDLAWSRDQKEKVYVQDKLREQGAELWRWINDGAHIYVCGDANRMAKDVEQALLEVIAEFGGMDTEAADEFLSELRVERRYQRDVY	5.2 ± 0.35 h	3.456 ± 0.027 h	3.67 ± 0.1 h	4.31 ± 0.044 h	3.24 ± 0.067 h	2.808 ± 0.02 h	4.99 ± 0.42 h	8.53 ± 0.79 h	3.58 ± 0.06 h	5.215 ± 0.029 h	4.99 ± 0.36 h	8.98 ± 1 h
MAYSIGIDSGSTATKGILLADGVITRRFLVPTPFRPATAITEAWETLREGLETTPFLTLTGYGRQLVDFADKQVTEISCHGLGARFLAPATRAVIDIGGQDSKVIQLDDDGNLCDFLMNDKCAAGTGRFLEVISRTLGTSVEQLDSITENVTPHAITSMCTVFAESEAISLRSAGVAPEAILAGVINAMARRSANFIARLSCEAPILFTGGVSHCQKFARMLESHLRMPVNTHPDAQFAGAIGAAVIGQRVRTRR	4.12 h	4.27 h	–	–	–	2.01 ± 0.18 h	3.66 ± 0.33 h	6.35 ± 0.44 h	–	–	–	–
